The assay has as its target T1, Flag-BUBR1 (human, UniProt O60566 1-1050).
T1 construct: also called Flag beads-BUBR1; source: eluted with 3×Flag peptide for MST, left on Flag beads for the pull-down
Kind of assay: pull-down; 10 μg purified His-UPCP incubated with Flag beads, Flag beads-BUBR1 or Flag beads-PTBP1 for 16 h at 4 °C; beads washed three times with PBS. The note with it: both partners purified.

T1 sequence (O60566 whole entry): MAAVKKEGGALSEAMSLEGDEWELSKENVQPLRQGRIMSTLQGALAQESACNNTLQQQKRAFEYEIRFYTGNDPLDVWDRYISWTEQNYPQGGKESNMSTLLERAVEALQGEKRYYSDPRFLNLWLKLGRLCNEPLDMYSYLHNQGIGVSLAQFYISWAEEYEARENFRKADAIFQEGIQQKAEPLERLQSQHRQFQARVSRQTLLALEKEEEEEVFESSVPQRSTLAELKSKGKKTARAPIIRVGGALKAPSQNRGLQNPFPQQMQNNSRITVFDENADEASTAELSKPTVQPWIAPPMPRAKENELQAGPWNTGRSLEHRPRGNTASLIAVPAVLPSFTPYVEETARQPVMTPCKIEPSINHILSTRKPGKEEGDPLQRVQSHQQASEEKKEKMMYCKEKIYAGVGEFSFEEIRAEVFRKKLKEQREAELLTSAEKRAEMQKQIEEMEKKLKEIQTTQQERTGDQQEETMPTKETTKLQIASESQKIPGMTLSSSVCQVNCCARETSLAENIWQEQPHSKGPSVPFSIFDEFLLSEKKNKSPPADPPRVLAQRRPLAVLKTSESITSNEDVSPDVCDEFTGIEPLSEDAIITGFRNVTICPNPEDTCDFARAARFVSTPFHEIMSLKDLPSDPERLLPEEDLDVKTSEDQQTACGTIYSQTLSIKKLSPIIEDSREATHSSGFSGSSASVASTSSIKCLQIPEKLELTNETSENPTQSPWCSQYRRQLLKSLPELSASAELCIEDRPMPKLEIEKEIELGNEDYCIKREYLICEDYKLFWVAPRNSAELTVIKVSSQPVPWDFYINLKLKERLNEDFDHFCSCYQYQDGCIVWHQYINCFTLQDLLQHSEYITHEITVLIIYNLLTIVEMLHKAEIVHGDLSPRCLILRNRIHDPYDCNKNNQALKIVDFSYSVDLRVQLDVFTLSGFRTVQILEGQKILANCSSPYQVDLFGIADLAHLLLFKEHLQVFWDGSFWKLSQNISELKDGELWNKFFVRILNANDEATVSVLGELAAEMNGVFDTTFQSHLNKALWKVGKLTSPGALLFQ

For YGRKKRRQRRRYNLRSRTVLCGTCGQPADKASASGSGAQSPQNCSIM (also called His-tagged UPCP) [His-UPCP], the binding result was “binds”.

Source of the values: article PMC10154249, “Unique progerin C-terminal peptide ameliorates Hutchinson–Gilford progeria syndrome phenotype by rescuing BUBR1” (Nature Aging, 2023).
